Measurements reported in patent US20250084188A1 (published 2025).
Changes are numbered by the printed parent chain.

B1: D2 (IgG) (antibody, V domains shown)
VH: EVQLVESGGGLVQPGGSLRLSCAASGFTFSSYAMHWVRQAPGKGLEWVSAISSSSGTIYYADSVKGRFTISRDNSKNTLYLQMNSLRAEDTAVYYCAKDFGAVFDYWGQGTLVTVSS
VL: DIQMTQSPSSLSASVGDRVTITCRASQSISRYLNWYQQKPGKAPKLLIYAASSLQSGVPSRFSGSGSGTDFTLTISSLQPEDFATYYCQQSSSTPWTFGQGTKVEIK
B2: A7 (IgG) (antibody, V domains shown)
VH: B1 VH with S31D, H35S, A50G, S55G, D99A, F100I, A102S, V103W, F104A, Y106I
VL: DIQMTQSPSSLSASVGDRVTITCRASQDISNYLNWYQQKPGKAPKLLIYAASSLQSGVPSRFSGSGSGTDFTLTISSLQPEDFATYYCQQSYSFPYTFGQGTKVEIK
B3: H1 (IgG) (antibody, V domains shown)
VH: B1 VH with H35S, S52R, S55G, I58T, D99S, F100Q, G101S, A102T, F104A
VL: B2 VL with D28S, Y32W, A51T, S53R, Y96L
B4: 1E12 (IgG) (antibody, V domains shown)
VH: EVQLVESGGGLVQPGGSLRLSCAASGFTFSSYAMHWVRQAPGKGLEWVSAISSSGGTKYYADSVKGRFTISRDNSKNTLYLQMNSLRAEDTAVYYCAKGLQGGAGAFDIWGQGTLVTVSS
VL: B2 VL with D28S, A51T, S53T, Q55H, Y96W
B5: F2 (IgG) (antibody, V domains shown)
VH: EVQLVESGGGLAQPGGSLRLSCAASGFTFSSYAMHWVRQAPGKGLEWVSSIKSSGGSKNYADSVKGRFTISRDNSKNTLYLQMNSLRAEDTAVYYCAKGYGASFDFWGQGTLVTVSS
VL: B2 VL with N31S, Y32W, S53R, S91A, Y96W
B6: A5 (IgG) (antibody, V domains shown)
VH: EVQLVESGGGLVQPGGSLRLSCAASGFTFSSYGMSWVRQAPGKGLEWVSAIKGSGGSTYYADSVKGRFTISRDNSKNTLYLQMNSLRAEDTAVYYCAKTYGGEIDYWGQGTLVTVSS
VL: B2 VL with D28S, N31R, Y32W, A51T, S53T, Y96W
B7: H7 (IgG) (antibody, V domains shown)
VH: EVQLVESGGGLVQPGGSLRLSCAASGFTFSSYGMHWVRQAPGKGLEWVSGISSSGGSKYYADSVKGRFTISRDNSKNTLYLQMNSLRAEDTAVYYCAKHGHQQMDFWGQGTLVTVSS
VL: B2 VL with D28S, N31S, Y32W, S53R, S91T, Y96W
B8: C5 (IgG) (antibody, V domains shown)
VH: EVQLVESGGGLVQPGGSLRLSCAASGFTFSSYAMSWVRQAPGKGLEWVSSISSSSGTTHYADSVKGRFTISRDNSKNTLYLQMNSLRAEDTAVYYCAKGGAFDYWGQGTLVTVSS
VL: B2 VL with N31R, Y32W, S53T, Y96L
B9: E7 (IgG) (antibody, V domains shown)
VH: EVQLVESGGGLVQPGGSLRLSCAASGFTFSSYAMHWVRQAPGKGLEWVSAISSSGGSIYYADSVKGRFTISRDNSKNTLYLQMNSLRAEDTAVYYCAKQGLSFDIWGQGTLVTVSS
VL: B2 VL with D28S, Y32W, A51T, S53R
B10: F4 (IgG) (antibody, V domains shown)
VH: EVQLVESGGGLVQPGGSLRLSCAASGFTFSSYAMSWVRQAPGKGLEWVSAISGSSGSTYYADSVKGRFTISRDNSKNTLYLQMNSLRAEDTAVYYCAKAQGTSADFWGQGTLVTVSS
VL: B2 VL with D28S, N31R, Y32W, S53R, F94T, Y96W

Target: human chitinase-3-like protein 1 (hCHI3L1) (human, UniProt P36222 22-383)
Sequence (P36222 22-383): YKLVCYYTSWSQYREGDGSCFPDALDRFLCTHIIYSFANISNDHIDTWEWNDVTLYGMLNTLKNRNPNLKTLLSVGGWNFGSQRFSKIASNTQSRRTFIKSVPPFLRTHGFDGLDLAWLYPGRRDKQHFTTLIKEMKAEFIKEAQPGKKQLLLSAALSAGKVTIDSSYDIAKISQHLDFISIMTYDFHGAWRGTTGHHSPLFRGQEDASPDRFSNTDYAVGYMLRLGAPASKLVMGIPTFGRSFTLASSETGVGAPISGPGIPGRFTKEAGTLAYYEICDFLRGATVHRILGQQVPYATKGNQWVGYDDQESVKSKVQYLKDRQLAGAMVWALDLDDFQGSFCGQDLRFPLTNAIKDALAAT
Test: ELISA

Binder | EC50 [pM]
B1 | 577
B2 | 2050
B3 | 496
B4 | 139
B5 | 1750
B6 | 972
B7 | 1380
B8 | 93
B9 | 348
B10 | 111
